Results on one substance are retold here after publication PMC9266650.

Experiment [1] addresses Skeletal actin, unmodified (0% ADPR-actin control) (not stated (purified from rabbit or chicken skeletal muscle)) (UniProt P68135).
Experiment [2] has as its target T148-ADP-ribosylated-actin (100% TccC3-ADP-ribosylated actin) (not stated (purified from rabbit or chicken skeletal muscle)) (UniProt P68135). Briefly: fluorescence polarisation. Background: Fluorescence polarisation rises when a labelled molecule tumbles more slowly, as on binding a larger partner.

In experiment [1], Thymosin-β4 (peptide) had a time at which 50% of actin is polymerized (t1/2); 2.5 µM pyrene-labeled (5%) G-actin, 0% modified, with 2.5 µM TMSB4 of 2.04 h. In experiment [2], this substance yielded a fold reduction of affinity against unmodified actin of 6.4 fold.
